The target of assay [1] is T1, Human Galectin-3 protein (Acro Biosystems, GA3-H5129) (human, UniProt P17931 2-250).
T1 construct: Bought protein; also called hGal3; Gal3; not shown: linker-spaced 6-histidine tag
As to the kind of experiment: ELISA titration, blocking of GAL3-TIM3; competitor TIM3. Background: In an ELISA, binding on a coated surface is turned into a signal by an enzyme label.

The target of assay [2] is T1, Human Galectin-3 protein (Acro …). The assay can be described thus: ELISA, hGal3 coated, antibody 3 ug/mL, competitor hTIM3.
For assay [3] the target is unchanged. The assay can be described thus: SPR Biacore T200, antibody captured, Galectin-3 analyte. (In SPR one partner is held on a chip, and binding of the other changes the refractive index at the surface.)
The target of a further assay is T2, hGal3 peptide 4 (human).
T2 peptide: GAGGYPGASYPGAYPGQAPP
As to the kind of experiment: peptide ELISA, 20-mer library (Epitope Mapping).

The target in the next assay is T3, hGal3 peptide 6 (human).
T3 peptide: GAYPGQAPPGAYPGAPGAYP
The assay can be described thus: peptide ELISA, 20-mer library (Epitope Mapping).

The target in another assay is T4, hGal3 peptide 7 (human).
T4 peptide: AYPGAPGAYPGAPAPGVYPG
As to the kind of experiment: peptide ELISA, 20-mer library (Epitope Mapping).

T1 sequence (P17931 2-250): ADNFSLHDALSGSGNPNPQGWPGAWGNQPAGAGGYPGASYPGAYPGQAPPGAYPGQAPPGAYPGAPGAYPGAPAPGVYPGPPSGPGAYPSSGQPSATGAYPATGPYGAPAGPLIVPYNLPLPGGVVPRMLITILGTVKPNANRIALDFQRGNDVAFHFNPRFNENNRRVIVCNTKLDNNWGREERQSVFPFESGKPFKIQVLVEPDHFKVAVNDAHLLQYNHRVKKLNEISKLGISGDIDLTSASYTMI

B1: IMT006-5 (antibody, V domains shown)
VH: QVQLVQSGAEVKKPGASVKVSCKASGYSFTNYYMHWVRQAPGQRLEWMGWIYPGSGNTNYNEKFQGRVTITADTSASTAYMELSSLRSEDTAVYYCSTAPGGFDVWGQGTTVTVSS
VL: DIVMTQTPLSLSVTPGQPASISCKSSKSLLHSDGITYLYWYLQKPGQSPQLLIYRMSNLASGVPDRFSGSGSGTDFTLKISRVEAEDVGVYYCAQMLEFPLTFGQGTKLEIKR
notes: humanized antibody derived from 4A11.2B5
As for B1, the IC50 (as a rule, the midpoint of a concentration-inhibition curve) in assay [1] amounted to 4.1 nM.

B2: IMT006-8 (antibody, V domains shown)
VH: QVQLVQSGAEVKKPGASVKVSCKASGYSFTNYYIHWVRQAPGQRLEWMGWIYPGSGNTNYNEKFQGRVTLTADTSASTTYMELSSLRSEDTAVYYCSTAPGGFDVWGQGTTVTVSS
VL: DIVMTQSPLSLPVTPGEPASISCRSSKSLLHSDGITYLYWYLQKPGQSPQLLIYRMSNLASGVPDRFSGSGSGTDFTLKISRVEAEDVGVYYCAQMLEFPLTFGQGTKLEIKR
notes: humanized antibody
Turning to B2, in assay [1], the IC50 is 2.8 nM.

B3: IMT006-1 (antibody, V domains shown)
VH: QVQLVQSGAEVKKPGASVKVSCKASGYSFTNYYMHWVRQAPGQGLEWMGWIYPGSGNTNYNEKFQGRVTMTADTSISTAYMELSRLRSDDTAVYYCSTAPGGFDVWGQGTTVTVSS
VL: DIVMTQTPLSLSVTPGQPASISCKSSKSLLHSDGITYLYWYLQKPGQSPQLLIYRMSNLASGVPDRFSGSGSGTDFTLKISRVEAEDVGVYYCAQMLEFPLTFGQGTKLEIKR
notes: humanized antibody derived from 4A11.2B5; also called HuIMT006-1
In turn, B3 came in with an IC50 in assay [1] of 26.5 nM.

B4: 3B11.2G2 (antibody, V domains shown)
VH: QIQLVQSGPELKKPGETVKISCKTSGYKFKTYVMSWVKQAPGKALKWMGWINTYSGVPTYADDFKGRFAFSLETSASTAYLEIINLKNEDTATYFCARDGNYGDPMDYWGQGTSVTVSS
VL: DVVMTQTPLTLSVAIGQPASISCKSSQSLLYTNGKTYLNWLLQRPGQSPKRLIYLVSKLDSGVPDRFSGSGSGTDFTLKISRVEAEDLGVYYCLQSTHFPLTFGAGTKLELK
notes: murine antibody; also called 3B11.2D2
In the case of B4, the “GAL3-TIM3 Blocking @ 3 ug/mL” value in assay [2] was 33%. Moreover, in assay [3], the Kd (commonly the free concentration of one partner at which half of the binding sites on the other are occupied at equilibrium, for simple one-to-one binding) was less than 1 nM. Moreover, the binding result with hGal3 peptide 4 and with hGal3 peptide 6 was “binds” in each case.

B5: 13A12.2E5 (antibody, V domains shown)
VH: QIQLVQSGPELKKPGETVKISCKTSGYKFKTYVMSWVKQAPGKALKWMGWINTYSGVPTYADDFKGRFAFSLETSASTAYLEIINLKNEDTATYFCARDGNYGDPMDYWGQGTSVTVSS
VL: DVVMTQTPLTLSVAIGQPASISCKSSQSLLYTNGKTYLNWLLQRPGQSPKRLIYLLSKLDSGVPDRFSASGSGTDFTLKISRVEAEDLGVYYCLQSTHFPLTFGAGTKLEMK
notes: murine antibody
Take B5: the “GAL3-TIM3 Blocking @ 3 ug/mL” value in assay [2] is 35%. The Kd in assay [3] was found to be 8.2 nM. Moreover, the binding result in the assay with hGal3 peptide 4 and with hGal3 peptide 6 was “binds” throughout.

B6: 846T.1H2 (antibody, V domains shown)
VH: QIQLVQSGPELKKPGETVKISCKASGYTFTNYGMNWVKQAPGKGLKWMGWINTNTGEPTYAEEFKGRFAFSLETSASTAYLQINNLKNEDTATYFCATGGGNWDFDYWGQGTTLTVSS
VL: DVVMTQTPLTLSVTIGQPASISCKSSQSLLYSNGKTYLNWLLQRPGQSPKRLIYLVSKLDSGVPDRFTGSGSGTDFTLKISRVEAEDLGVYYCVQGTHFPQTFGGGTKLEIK
notes: murine antibody
In the case of B6, the “GAL3-TIM3 Blocking @ 3 ug/mL” value in assay [2] was found to be 81%. Besides, the Kd in assay [3] was determined as 2.82 nM.

B7: 19B5.2E6 (antibody, V domains shown)
VH: QIQLVQSGPELKKPGETVKISCKASGYTFTTYAMSWVKQAPGKGLKWMGWINTYSGVPTYADDLKGRFAFSLETSASTAYLQINNLKNEDTATYFCARGPYAMDYWGQGTSVTVSS
VL: DIQMTQTTSSLSASLGDRVTISCSASQGINNYLNWYQQKPDGTVKLLIYYASSLHSGVPSRFSGSGSGTDYSLTISNLEPEDIATYYCQQYSQVPYTFGSGTKLEIK
notes: murine antibody
Regarding B7, the “GAL3-TIM3 Blocking @ 3 ug/mL” value in assay [2] is 61%. Besides, the Kd in assay [3] was less than 1 nM.

B8: 23H9.2E4 (antibody, V domains shown)
VH: QIQLVQSGPELKKPGETVKISCKASGYTFTTYAMSWVKQAPGKGLKWMGWINTYSGVPTYADDLKGRFAFSLETSASTAYLQINNLKNEDTATYFCARGPYAMDYWGQGTSVTVSS
VL: DIQMTQTTSSLSASLGDRVTISCSASQGINNYLNWYQQKPDGTVKLLIYYASSLHSGVPSRFSGSGSGTDYSLTISNLEPEDIATYYCQQYSQVPYTFGSGTKLEIK
notes: murine antibody
As to B8, the “GAL3-TIM3 Blocking @ 3 ug/mL” value in assay [2] was 80%. For the same molecule, the Kd in assay [3] was determined as 4.26 nM.

B9: 20H5.A3 (antibody, V domains shown)
VH: QIQLVQSGPELKKPGESVKISCKASGYAFTTYGMSWVQQAPGKGLKWMGWVNTYSGVPTCADDFKGRFAFSLETSASTAYLQINNLRNEDTATYFCARGPYAMDYWGQGTSVTVSS
VL: DIQMTQTTSSLSASLGDRVTINCSASQDISNYLNWYQQKPDGTVKLLIYYTSSLLSGVPSRFSGSGSGTDYSLTISNLEPEDIATYFCQQYSKLPYTFGSGTHLEIK
notes: murine antibody
Take B9: the “GAL3-TIM3 Blocking @ 3 ug/mL” value in assay [2] came out at 81%. Also, the Kd in assay [3] was determined as 3.95 nM.

B10: 6H6.2D6 (antibody, V domains shown)
VH: QIQLVQSGPELKKPGETVKISCKASGYTFTTYGMSWVKQAPGKGLKWMAWINTYSGVPTYADDFKGRFAFSLETSASTAYLQINNLTNEDTATYFCARGPYAMDYWGQGTSVTVSS
VL: DIQMTQTTSSLSASLGDRVTISCSASQGISNYLNWYQQKPDGTVKLLIYYTSSLHSGVPSRFSGSGSGTDYSLTISNLEPEDIATYYCQQYSELPYTFGSGTKLEIK
notes: murine antibody
With B10, the “GAL3-TIM3 Blocking @ 3 ug/mL” value in assay [2] amounted to 82%. Also, in assay [3], the Kd is 4.86 nM.

B11: 13H12.2F8 (antibody, V domains shown)
VH: QIQLVQSGPELKKPGETVKISCKASGYTFTTYGMSWVKQAPGKGLKWMGWINTYSGVPTYADDFKGRFAFSLETSASTAYLQINNLKNEDTATYFCAVPYEYDGAYWGQGTLVTVSA
VL: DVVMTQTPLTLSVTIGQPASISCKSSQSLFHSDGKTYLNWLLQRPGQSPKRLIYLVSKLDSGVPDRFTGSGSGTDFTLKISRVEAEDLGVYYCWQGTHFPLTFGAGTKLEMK
notes: murine antibody
As for B11, the “GAL3-TIM3 Blocking @ 3 ug/mL” value in assay [2] amounted to 57%. The molecule also gave a Kd in assay [3] of 6.07 nM. The binding result in the assay with hGal3 peptide 7 and with hGal3 peptide 6 was “binds” each time.

B12: 19D9.2E5 (antibody, V domains shown)
VH: QIQLVQSGPELKKPGETVKISCKASGYTFTTYGMGWVKQAPGKGLKWMGWINTYSGVPTYADDFKGRFAFSLETSTSTAYLQINNLKNEDMATYFCATPYEYDGAYWGQGTLVTVSA
VL: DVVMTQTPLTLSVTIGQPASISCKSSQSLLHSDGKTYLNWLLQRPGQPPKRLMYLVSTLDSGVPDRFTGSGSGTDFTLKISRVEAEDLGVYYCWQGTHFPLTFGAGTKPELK
notes: murine antibody
As to B12, the “GAL3-TIM3 Blocking @ 3 ug/mL” value in assay [2] was 34%. The molecule further gave a Kd in assay [3] of less than 1 nM. Moreover, the binding result with hGal3 peptide 7 and with hGal3 peptide 6 was “binds” each time.

B13: 14H10.2C9 (antibody, V domains shown)
VH: QIQLVQSGPELKKPGETVKISCKASGYTFTTYGMGWVKQAPGKDLKWMGWINTYSGVPTYADDFKGRFAFSLETSASTAYLQISNLKNEDTATYFCSTPYEYDGAYWGQGTLVTVSA
VL: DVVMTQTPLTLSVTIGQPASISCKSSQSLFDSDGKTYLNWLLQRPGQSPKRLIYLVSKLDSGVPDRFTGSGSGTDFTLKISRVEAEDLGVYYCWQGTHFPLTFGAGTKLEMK
notes: murine antibody
In the case of B13, the “GAL3-TIM3 Blocking @ 3 ug/mL” value in assay [2] was determined as 44%. The molecule also came in with a Kd in assay [3] of 0.562 nM. In addition, the binding result in the assay with hGal3 peptide 7 and with hGal3 peptide 6 was “binds” throughout.

B14: 4G2.2G6 (antibody, V domains shown)
VH: QIQLVQSGPDLKKPGETVKISCKASGYTFTTYVMSWVKQAPGKDLKWMGWINTHSGVPTYADDFKGRFDFSLETSANTAFLQINNLKNEDTATYFCTRDGNDGDAMDNWGQGTSVTVSS
VL: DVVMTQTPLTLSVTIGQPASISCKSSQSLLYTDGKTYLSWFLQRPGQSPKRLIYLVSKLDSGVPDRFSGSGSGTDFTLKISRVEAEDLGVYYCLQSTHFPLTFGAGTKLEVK
notes: murine antibody
For the molecule B14, the “GAL3-TIM3 Blocking @ 3 ug/mL” value in assay [2] was found to be 48%. In assay [3], the Kd was less than 1 nM. Moreover, the binding result in the assay with hGal3 peptide 4 is “binds”.

B15: IMT001-4 (antibody, IgG4, V domains shown)
VH: QVQLVQSGSELKKPGASVKVSCKASGYTFTNYGMNWVRQAPGQGLKWMGWINTNTGEPTYVEEFTGRFVFSLETSVSTAYLQISSLKAEDTAVYFCAPYDNFFAYWGQGTTVTVSS
VL: DIVLTQSPLSLPVTPGEPASISCRSSKSLLYKDGKTYLNWFLQKPGQSPQLLIYLMSTHASGVPDRFSGSGSGTDFTLKISRVEAEDVGVYYCQQLVDYPLTFGGGTKLEIKR
notes: also called HuIMT001-4
Molecule B15 yielded an IC50 in assay [1] of 5.6 nM.

B16: 846.2H3 (antibody, V domains shown)
VH: QIQLVQSGPELKKPGETVKISCKASGYTFTNYGMNWVKQAPGKGLKWMGWINTYTGEPSYADDFKGRFAFSLETSASTAYLQINNLKNEDMATYFCARWGGYDGDYYAMDYWGQGTSVTVSS
VL: NIMMTQSPSSLAVSAGEKVTMSCKSSQSVLYSSNQKNYLAWYQQKPGQSPKLLIYWASTRESGVPDRFTGSGSGTDFTLTISSVQPEDLAVYYCHQYLSSLTFGAGTKLELK
notes: murine antibody
For B16, the “GAL3-TIM3 Blocking @ 3 ug/mL” value in assay [2] amounted to 100%. The molecule further showed a Kd in assay [3] of 10.2 nM.

B17: 846.1F5 (antibody, V domains shown)
VH: QIQLVQSGPELKKPGETVKISCKASGYTFTNYGMNWVKQAPGKGLKWMGWINTYTGEPSYADDFKGRFAFSLETSASTAYLQINNLKNEDMATYFCARWGGYDGDYYAMDYWGQGTSVTVSS
VL: NIMMTQSPSSLAVSAGEKVTMSCKSSQSVLYSSNQKNYLAWYQQKPGQSPKLLIYWASTRESGVPDRFTGSGSGTDFTLTISSVQPEDLAVYYCHQYLSSLTFGAGTKLELK
notes: murine antibody
For the molecule B17, in assay [2], the “GAL3-TIM3 Blocking @ 3 ug/mL” value came out at 90%. The molecule also showed a Kd in assay [3] of 2.73 nM.

B18: 2D10.2B2 (antibody, V domains shown)
VH: QVQLQQSGPELVKPGASVKISCKASGYTFTDYYINWVKQRPGQGLEWIGWIYPGSNDTKYNEKFKGKATLTVDTSSSTAYMQLGSLTSEDSAVYFCANYFGCSGWFFDVWGTGTTVTVSS
VL: DIVMTQAAFSNPVTLGTSASISCRSSKSLLHSDGITYLYWYLQRPGQSPQLLIYRMSNLASGVPDRFSGSGSGTDFTLRISRVEAEDVGVYYCAQMIEFPLTFGAGTILELK
notes: murine antibody
As to B18, the “GAL3-TIM3 Blocking @ 3 ug/mL” value in assay [2] came out at 86%. This molecule showed a Kd in assay [3] of 0.753 nM. Also, the binding result in the assay with hGal3 peptide 6 is listed as “binds”.

B19: 4A11.2B5 (antibody, V domains shown)
VH: QVQLQQSGPELVKPGASVKISCKASGYSFTNYYIHWVKQRPGQGLEWIGWIYPGSGNTNYNEKFKGKATLTADTSSSTTNMQLSSLTSEDSAVYYCSTAPGGFDVWGSGTTVTVSS
VL: DIVMTQAAFSNPVTLGTSASISCRSSKSLLHSDGITYLYWYLQRPGQSPQLLIYRMSNLASGVPDRFSGSGSGTDFTLRISRVEAEDVGVYYCAQMLEFPLTFGAGTKLELK
notes: murine antibody; parent of IMT006-1 and IMT006-5
Take B19: the “GAL3-TIM3 Blocking @ 3 ug/mL” value in assay [2] stood at 48%. The affinity in assay [3], expressed as Kd, was 5.22 nM. Moreover, the binding result with hGal3 peptide 6 is reported as “binds”.
